According to PMC6239174:

How the values were obtained:
Slbp2-MBP [1] = target: T1, Slbp2-MBP (Danio rerio (zebrafish), UniProt A1L2F4 1-326); assay: EMSA
Slbp2-MBP [2] = target: T1, Slbp2-MBP; assay: competition EMSA

Binder	binding result (Slbp2-MBP [1])	binding result (Slbp2-MBP [2])
AAAAAGGUUCUUUUAAGAACCACCCAUUUUU (structured_RNA) [h2a mRNA stem-loop (H2a SL) probe]	binds	–
AAAAAGGUUCUUUUAAGAACCACCCAUUUUU (structured_RNA) [unlabeled H2a SL competitor]	–	binds
